Results taken from US20220323445A1, “REDUCING IMMUNOGENICITY TO PEGLOTICASE” (Horizon Therapeutics Ireland DAC, priority 2020, published 2022).

System: serum uric acid (sUA)
Experiment: Serum uric acid (sUA) levels and sUA responders, open-label study of pegloticase with MTX (NCT03635957)
Assay type: in vivo, human
Protocol: The primary objective is to estimate the response rate during Month 6 (Weeks 20, 22, and 24), as measured by the sustained normalization of serum uric acid (SUA) to <6 mg/dL for at least 80% of the time during Month 6 in subjects receiving KXX with MTX.
The primary efficacy outcome endpoint is the sustained normalization of SUA to <6 mg/dL for at least 80% of the time during month 6 (weeks 20, 22, and 24) in subjects receiving KXX with MTX. This is slightly below the urate solubility threshold and this threshold has been the accepted standard for nearly all modern gout trials. Participants who achieve this endpoint were classified as “responders.” Serum uric acid (SUA) responders may also be defined as participants achieving and maintaining SUA <6 mg/dL for at least 80% of the time during Month 6 (Weeks 20, 22, and 24).
Blood samples may be collected prior to each pegloticase infusion for measurement of SUA levels using the Beckman Coulter AU System Uric Acid procedure. Participants were declared “non-responders” if there were SUA measures >6 mg/dL at 2 consecutive study visits beginning with the week 2 visit. […] If the SUA goal is not maintained before or at the 12-week mark, it was assumed that the participant had developed clinically relevant anti-pegloticase antibody and they received no further infusions. This assumption and subsequent discontinuation of pegloticase was consistent with the protocol of large phase III randomized controlled trials and the product label. A formal stopping rule was 2 occasions of SUA levels of greater than 6 mg/dL.
Clinical Chemistry—Blood samples were collected prior to each pegloticase infusion for measurement of SUA levels (primary efficacy parameter) using the Beckman Coulter AU System Uric Acid procedure. In this procedure uric acid is converted to hydrogen peroxide. Hydrogen peroxide reacts with reagent to produce a chromophore which is read bichromatically at 660/800 nm. The amount of dye formed is proportional to the uric acid concentration in the sample.
Serum samples for measurement of SUA levels were collected at the Screening Visit, the Week −4 Visit (prior to the first dose of MTX), and the Week −2 Visit during the MTX Run-in Period; within 48 hours prior to each pegloticase infusion and after the end of each pegloticase infusion prior to discharge from the site during the Pegloticase+IMM Period; at the non-infusion Week 52/End of Study/Early Termination Visits and at the Post Treatment 3 and 6 Month Follow-up Visits. Additional serum samples for SUA levels were collected at optional non-infusion (Frequent Sampling) Visits at Weeks 1 and 7. […] Subjects with SUA level >6 mg/dL at 2 consecutive visits beginning at Week 2 visit discontinued treatment, completed the End of Pegloticase Infusion Visit procedures within 2 weeks and continued the subject visits according to the protocol (without treatment).
Efficacy analyses were performed using the modified intention-to-treat (mITT) population, defined as all enrolled subjects who received ≥1 dose of pegloticase. The proportion of Month 6 responders was summarized, along with a 95% confidence interval for the proportion. The proportion of Month 3 and overall (Months 3 and 6 combined) responders was analyzed similarly.
A subject was declared a non-responder if the subject had SUA level >6 mg/dL at 2 consecutive study visits beginning with the Week 2 Visit. In addition, a subject who withdraws from study treatment for any reason after the first dose of pegloticase in the KXX+MTX Period and prior to Month 6 (for the primary endpoint) or Month 3 (for the secondary endpoint) was considered a non-responder if SUA values were not collected at the planned time points.
Patients were administered oral MTX (15 mg/week) and folate (1 mg/day) 4 weeks prior to the first pegloticase infusion (Day 1) and throughout the pegloticase treatment period. […]

[1] = Week 6 - Pre-Infusion, Month 6 sUA Responders
[2] = Week 6 - Pre-Infusion, mITT, n=13
[3] = Week 8 - Post-Infusion, Month 6 sUA Non-Responders
[4] = Week 8 - Post-Infusion, Month 6 sUA Responders
[5] = Week 8 - Post-Infusion, mITT, n=12
[6] = Week 8 - Pre-Infusion, Month 6 sUA Non-Responders
[7] = Week 8 - Pre-Infusion, Month 6 sUA Responders
[8] = Week 8 - Pre-Infusion, mITT, n=12
[9] = Week 10 - Post-Infusion, Month 6 sUA Responders
[10] = Week 10 - Post-Infusion, mITT, n=11
[11] = Week 10 - Pre-Infusion, Month 6 sUA Non-Responders
[12] = Week 10 - Pre-Infusion, Month 6 sUA Responders
[13] = Week 10 - Pre-Infusion, mITT, n=12
[14] = Week 12 - Post-Infusion, Month 6 sUA Responders

B1: pegloticase (protein)
chain: TYKKNDEVEFVRTGYGKDMIKVLHIQRDGKYHSIKEVATTVQLTLSSKKDYLHGDNSDVIPTDTIKNTVNVLAKFKGIKSIETFAVTICEHFLSSFKHVIRAQVYVEEVPWKRFEKNGVKHVHAFIYTPTGTHFCEVEQIRNGPPVIHSGIKDLKVLKTTQSGFEGFIKDQFTTLPEVKDRCFATQVYCKWRYHQGRDVDFEATWDTVRSIVLQKFAGPYDKGEYSPSVQKTLYDIQVLTLGQVPEIEDMEISLPNIHYLNIDMSKMGLINKEEVLLPLDNPYGKITGTVKRKLSSRL
modifications: monomethoxy PEG conjugated; Krystexxa Sequence
notes: covalent conjugate of uricase produced by a genetically modified strain of Escherichia coli and monomethoxypoly (ethylene glycol)
For B1, the “sUA < 6 mg/dL, %” value [1] was “(100%)”, the “sUA Change from Baseline, Mean” value [1] was -8.97 mg/dL and the “sUA Change from Baseline, Median” value [1] was -8.80 mg/dL. For the same molecule, the “sUA Observed, Mean” value [1] was 0.30 mg/dL, the “sUA Observed, Median” value [1] was 0.30 mg/dL and the “sUA < 6 mg/dL, n (%)” value [2] was 12 (92.3%). The “sUA Change from Baseline, Mean (SD)” value [2] was −8.31 (3.538) mg/dL, the “sUA Change from Baseline, Median” value [2] was -8.80 mg/dL and the “sUA Observed, Mean (SD)” value [2] was 0.91 (2.191) mg/dL. For the same molecule, the “sUA Observed, Median” value [2] was 0.30 mg/dL, the “sUA < 6 mg/dL, %” value (Week 7, Month 6 sUA Responders) was “(100%)” and the “sUA Change from Baseline, Mean” value (Week 7, Month 6 sUA Responders) was -8.90 mg/dL. The “sUA Observed, Mean” value (Week 7, Month 6 sUA Responders) was 0.30 mg/dL, the “sUA < 6 mg/dL, n (%)” value (Week 7, mITT, n=4) was 4 (100%) and the “sUA Change from Baseline, Mean (SD)” value (Week 7, mITT, n=4) was −8.90 (4.755) mg/dL. The “sUA Change from Baseline, Median” value (Week 7, mITT, n=4) was -7.85 mg/dL, the “sUA Observed, Mean (SD)” value (Week 7, mITT, n=4) was 0.30 (0.000) mg/dL and the “sUA Observed, Median” value (Week 7, mITT, n=4) was 0.30 mg/dL. The “sUA < 6 mg/dL, %” value [3] was “(100%)”, the “sUA Change from Baseline, Mean” value [3] was -9.10 mg/dL and the “sUA Observed, Mean” value [3] was 0.30 mg/dL. The “sUA < 6 mg/dL, %” value [4] was “(100%)”, the “sUA Change from Baseline, Mean” value [4] was -8.97 mg/dL and the “sUA Observed, Mean” value [4] was 0.30 mg/dL. For the same molecule, the “sUA < 6 mg/dL, n (%)” value [5] was 12 (100%), the “sUA Change from Baseline, Mean (SD)” value [5] was −8.98 (2.679) mg/dL and the “sUA Change from Baseline, Median” value [5] was -8.95 mg/dL. The “sUA Observed, Mean (SD)” value [5] was 0.30 (0.000) mg/dL, the “sUA Observed, Median” value [5] was 0.30 mg/dL and the “sUA Change from Baseline, Mean” value [6] was -0.50 mg/dL. The “sUA Observed, Mean” value [6] was 8.90 mg/dL, the “sUA < 6 mg/dL, %” value [7] was “(100%)” and the “sUA Change from Baseline, Mean” value [7] was -8.91 mg/dL. The “sUA Observed, Mean” value [7] was 0.37 mg/dL, the “sUA < 6 mg/dL, n (%)” value [8] was 11 (91.7%) and the “sUA Change from Baseline, Mean (SD)” value [8] was −8.20 (3.624) mg/dL. For the same molecule, the “sUA Change from Baseline, Median” value [8] was -8.33 mg/dL, the “sUA Observed, Mean (SD)” value [8] was 1.08 (2.472) mg/dL and the “sUA Observed, Median” value [8] was 0.30 mg/dL. For the same molecule, the “sUA < 6 mg/dL, %” value [9] was “(100%)”, the “sUA Change from Baseline, Mean” value [9] was -8.97 mg/dL and the “sUA Change from Baseline, Median” value [9] was -8.80 mg/dL. The “sUA Observed, Mean” value [9] was 0.30 mg/dL, the “sUA Observed, Median” value [9] was 0.30 mg/dL and the “sUA < 6 mg/dL, n (%)” value [10] was 11 (100%). For the same molecule, the “sUA Change from Baseline, Mean (SD)” value [10] was −8.97 (2.810) mg/dL, the “sUA Change from Baseline, Median” value [10] was -8.80 mg/dL and the “sUA Observed, Mean (SD)” value [10] was 0.30 (0.000) mg/dL. The “sUA Observed, Median” value [10] was 0.30 mg/dL, the “sUA Change from Baseline, Mean” value [11] was -1.30 mg/dL and the “sUA Observed, Mean” value [11] was 8.10 mg/dL. The “sUA < 6 mg/dL, %” value [12] was “(100%)”, the “sUA Change from Baseline, Mean” value [12] was -8.97 mg/dL and the “sUA Observed, Mean” value [12] was 0.30 mg/dL. For the same molecule, the “sUA < 6 mg/dL, n (%)” value [13] was 11 (91.7%), the “sUA Change from Baseline, Mean (SD)” value [13] was −8.33 (3.476) mg/dL and the “sUA Change from Baseline, Median” value [13] was -8.70 mg/dL. For the same molecule, the “sUA Observed, Mean (SD)” value [13] was 0.95 (2.252) mg/dL, the “sUA Observed, Median” value [13] was 0.30 mg/dL and the “sUA < 6 mg/dL, %” value [14] was “(100%)”. For the same molecule, the “sUA Change from Baseline, Mean” value [14] was -9.13 mg/dL, the “sUA Change from Baseline, Median” value [14] was -9.05 mg/dL and the “sUA Observed, Mean” value [14] was 0.30 mg/dL. For the same molecule, the “sUA Observed, Median” value [14] was 0.30 mg/dL and the “sUA < 6 mg/dL, n (%)” value (Week 12 - Post-Infusion, mITT, n=10) was 10 (100%).
